Experimental findings from patent US20030028002A1, “Cyclin D binding factor, and uses thereof” (published 2003) are described below.

T1: DMP1 expressed in 293T cells (Mus musculus) (UniProt Q8CE22)
T1 sequence: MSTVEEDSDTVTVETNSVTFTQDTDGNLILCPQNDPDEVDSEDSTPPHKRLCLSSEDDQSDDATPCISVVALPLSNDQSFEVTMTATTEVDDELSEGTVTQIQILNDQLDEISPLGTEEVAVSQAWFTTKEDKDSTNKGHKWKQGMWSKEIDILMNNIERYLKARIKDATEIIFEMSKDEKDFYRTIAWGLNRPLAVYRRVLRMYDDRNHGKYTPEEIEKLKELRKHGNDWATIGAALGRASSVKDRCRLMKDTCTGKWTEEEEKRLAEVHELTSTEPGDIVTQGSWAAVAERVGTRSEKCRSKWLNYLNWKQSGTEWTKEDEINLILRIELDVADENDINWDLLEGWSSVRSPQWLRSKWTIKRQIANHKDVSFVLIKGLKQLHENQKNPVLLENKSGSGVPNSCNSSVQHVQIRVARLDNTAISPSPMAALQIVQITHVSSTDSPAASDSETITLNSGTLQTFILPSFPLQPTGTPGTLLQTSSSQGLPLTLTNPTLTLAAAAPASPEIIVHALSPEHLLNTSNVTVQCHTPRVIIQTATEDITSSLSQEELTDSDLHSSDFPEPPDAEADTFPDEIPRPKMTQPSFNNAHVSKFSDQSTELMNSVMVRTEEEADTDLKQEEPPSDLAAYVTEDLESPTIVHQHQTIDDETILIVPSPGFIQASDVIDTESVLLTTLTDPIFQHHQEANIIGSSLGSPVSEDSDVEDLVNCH

T2: GST-DMP1 fusion protein (GST fused to residues 176-761 of DMP1)
T2 chain: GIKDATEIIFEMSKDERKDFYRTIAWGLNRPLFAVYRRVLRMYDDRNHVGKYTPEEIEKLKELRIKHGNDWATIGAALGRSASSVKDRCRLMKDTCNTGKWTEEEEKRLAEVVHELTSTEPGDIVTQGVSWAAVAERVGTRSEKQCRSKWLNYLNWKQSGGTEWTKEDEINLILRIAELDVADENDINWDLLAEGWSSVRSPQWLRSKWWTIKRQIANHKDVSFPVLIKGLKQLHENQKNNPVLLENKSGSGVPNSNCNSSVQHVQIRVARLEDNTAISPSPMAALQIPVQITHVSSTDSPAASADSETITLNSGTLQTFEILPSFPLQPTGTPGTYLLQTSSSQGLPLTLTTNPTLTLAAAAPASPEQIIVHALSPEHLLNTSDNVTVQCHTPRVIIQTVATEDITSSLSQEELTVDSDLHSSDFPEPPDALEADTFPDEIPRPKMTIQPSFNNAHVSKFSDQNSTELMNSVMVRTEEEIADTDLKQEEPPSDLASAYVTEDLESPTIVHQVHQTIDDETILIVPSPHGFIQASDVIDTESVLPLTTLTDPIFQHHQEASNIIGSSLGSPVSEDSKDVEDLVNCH

T3: DMP1 (cyclin D-binding myb-like protein), murine, full length (mouse, UniProt Q8CE22 1-761, multiple phosphorylated forms when made in Sf9 cells (sites not given))
T3 sequence: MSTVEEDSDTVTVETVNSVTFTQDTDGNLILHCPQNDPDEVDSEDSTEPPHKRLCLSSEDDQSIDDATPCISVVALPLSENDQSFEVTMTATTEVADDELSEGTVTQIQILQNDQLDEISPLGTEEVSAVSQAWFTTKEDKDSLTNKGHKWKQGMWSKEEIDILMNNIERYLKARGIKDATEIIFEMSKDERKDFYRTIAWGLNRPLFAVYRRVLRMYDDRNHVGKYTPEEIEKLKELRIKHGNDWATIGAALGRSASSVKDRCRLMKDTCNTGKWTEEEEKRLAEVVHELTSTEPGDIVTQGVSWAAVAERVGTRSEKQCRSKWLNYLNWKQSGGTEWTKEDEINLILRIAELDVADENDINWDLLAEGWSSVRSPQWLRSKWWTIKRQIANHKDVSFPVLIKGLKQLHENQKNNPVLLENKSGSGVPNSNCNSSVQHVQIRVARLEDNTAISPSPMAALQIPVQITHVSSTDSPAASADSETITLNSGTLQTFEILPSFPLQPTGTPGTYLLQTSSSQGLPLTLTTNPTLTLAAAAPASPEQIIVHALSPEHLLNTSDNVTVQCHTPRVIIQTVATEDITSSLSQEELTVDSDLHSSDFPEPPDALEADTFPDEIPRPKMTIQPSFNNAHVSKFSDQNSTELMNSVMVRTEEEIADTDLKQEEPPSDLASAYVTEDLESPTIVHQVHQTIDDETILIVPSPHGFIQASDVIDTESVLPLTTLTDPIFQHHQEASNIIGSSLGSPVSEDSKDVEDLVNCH

B1: cyclin D1-CDK4 complex (protein)
chain 1: MEHQLLCCEVETIRRAYPDTNLLNDRVLRAMLKTEETCAPSVSYFKCVQKEIVPSMRKIVATWMLEVCEEQKCEEEVFPLAMNYLDRFLSLEPLKKSRLQLLGATCMFVASKMKETIPLTAEKLCIYTDNSIRPEELLQMELLLVNKLKWNLAAMTPHDFIEHFLSKMPEADENKQTIRKHAQTFVALCATDVKFISNPPSMVAAGSVVAAMQGLNLGSPNNFLSCYRTTHFLSRVIKCDPDCLRACQEQIEALLESSLRQAQQNVDPKATEEEGEVEEEAGLACTPTDVRDVDI
chain 2: MAATRYEPVAEIGVGAYGTVYKARDPHSGHFVALKSVRVPNGGAAGGGLPVSTVREVALLRRLEAFEHPNVVRLMDVCATSRTDRDIKVTLVFEHIDQDLRTYLDKAPPPGLPVETIKDLMRQFLSGLDFLHANCIVHRDLKPENILVTSNGTVKLADFGLARIYSYQMALTPVVVTLWYRAPEVLLQSTYATPVDMWSVGCIFAEMFRRKPLFCGNSEADQLGKIFDLIGLPPEDDWPREVSLPRGAFAPRGPRPVQSVVPEMEESGAQLLLEMLTFNPHKRISAFRALQHSYLHKEESDAE
B2: cyclin D2-CDK4 complex (protein)
chain 1: MELLCCEVDPVRRAVPDRNLLEDRVLQNLLTIEERYLPQCSYFKCVQKDIQPYMRRMVATWMLEVCEEQKCEEEVFPLAMNYLDRFLAGVPTPKTHLQLLGAVCMFLASKLKETIPLTAEKLCIYTDNSVKPQELLEWELVVLGKLKWNLAAVTPHDFIEHILRKLPQQKEKLSLIRKHAQTFIALCATDFKFAMYPPSMIATGSVGAAICGLQQDDEVNTLTCDALTELLAKITHTDVDCLKACQEQIEALLLNSLQQFRQEQHNAGSKSVEDPDQATTPTDVRDVDL
chain 2: B1 chain 2
B3: cyclin D1 (other, mouse, UniProt P25322 1-295, looked up)
chain: B1 chain 1
B4: cyclin D3-CDK4 complex (protein)
chain 1: MELLCCEGTRHAPRAGPDPRLLGDQRVLQSLLRLEERYVPRASYFQCVQKEIKPHMRKMLAYWMLEVCEEQRCEEDVFPLAMNYLDRYLSCVPTRKAQLQLLGTVCLLLASKLRETTPLTIEKLCIYTDQAVAPWQLREWEVLVLGKLKWDLAAVIAHDFLALILHRLSLPSDRQALVKKHAQTFLALCATDYTFAMYPPSMIATGSIGAAVLGLGACSMSADELTELLAGITGTEVDCLRACQEQIEAALRESLREAAQTAPSPVPKAPRGSSSQGPSQTSTPTDVTAIHL
chain 2: B1 chain 2
B5: cyclin D2 (other, mouse, UniProt P30280 1-289, looked up)
chain: B2 chain 1
B6: cyclin D3 (other, mouse, UniProt P30282 1-292, looked up)
chain: B4 chain 1

For data set [1], the target named is T1, DMP1 expressed in 293T cells (Mus musculus). Description: cell_activity. The following applies: 6x BS1 luciferase reporter. (In a reporter assay the amount or activity of a reporter protein is the signal.)
For data set [2], the target named is B5. Description: GST pull-down of 35S-labelled in vitro translated cyclin on glutathione-Sepharose, gel autoradiography. The method, then: (§1) Because DMP1 interacted with cyclin D2 in yeast, the ability of a glutathione S-transferase (GST)-DMP1 fusion protein to bind D-type cyclins in vitro is examined. GST is fused to residues 176-761 of DMP1 (in lieu of GAL4 in the original cDNA clone), and the bacterially synthesized recombinant protein is incubated with [³⁵S]methionine-labeled D-type cyclins prepared by transcription and translation in vitro. As a positive control, GST-RB which can specifically bind D-type cyclins in this assay is used (15). Bound cyclins recovered on washed glutathione-Sepharose beads are analyzed by electrophoresis on denaturing gels. […] GST-DMP1 is less efficient than GST-RB in binding cyclins D2 and D3 (˜4-fold less binding), and under these conditions, an interaction with D1 is not detected (lanes 3, 7, 11). No labeled proteins bind to GST alone (lanes 4, 8, 12), and neither cyclin A nor cyclin E bind to GST-RB or to GST-DMP1. A cyclin D2 mutant disrupted in an amino-terminal Leu-X-Cys-X-Glu pentapeptide that is required for high efficiency GST-RB binding is not detectably compromised in its interaction with GST-DMP1 (negative data not shown); in agreement, DMP1 bears no homology to RB or to RB-related family members (p107 and p130).

Data set [3] deals with B6. Described as above. The procedure:
as §1

Data set [4] has as its target GST-RB fusion protein [GST: P08515].
The target in data set [5] is T2, GST-DMP1 fusion protein (GST fused to …).
Data set [6] concerns the target T3, DMP1 (cyclin D-binding myb-like …). Description: cell-based or functional assay.

Chain of GST-RB fusion protein [GST: P08515] (P08515 whole entry, looked up, the tested form may be a part): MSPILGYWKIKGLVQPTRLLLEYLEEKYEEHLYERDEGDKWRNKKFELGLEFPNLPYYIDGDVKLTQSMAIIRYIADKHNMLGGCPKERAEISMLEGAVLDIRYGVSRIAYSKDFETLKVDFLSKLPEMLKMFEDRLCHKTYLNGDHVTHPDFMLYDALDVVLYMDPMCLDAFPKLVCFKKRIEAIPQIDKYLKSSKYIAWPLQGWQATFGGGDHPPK

“AATTGACCCGGATGTAGGTACGC (double strand) [BS1]” displayed an activity (fold activation) in data set [1] of 7.

Turning to “GST-RB fusion protein (from UniProt P08515 1-218)”, the percent of the total input protein bound in data set [2] and in data set [3] was 20% each time.

For B1, the “in vitro phosphorylation of the GST fusion protein by Sf9 lysates (32P)” value (“in vitro phosphorylation” below) is “Under equivalent conditions, GST-RB is always a preferred substrate” in data set [4] and “lysates containing active cyclin D-CDK4 complexes phosphorylate both” in data set [5].

On to B2, for which the “in vitro phosphorylation” value is “Under equivalent conditions, GST-RB is always a preferred substrate” in data set [4] and “lysates containing active cyclin D-CDK4 complexes phosphorylate both” in data set [5].

For B3, the “Luciferase Activity (DMP1 transactivation of a DMP1-responsive reporter; DMP1 alone 8.4, no DMP1 1.0)” value in data set [6] was 1.5 relative to empty expression vector = 1.0.

Regarding B4, the “in vitro phosphorylation” value in data set [4] is reported as “Under equivalent conditions, GST-RB is always a preferred substrate”; in data set [5], “different preparations of cyclin D3-CDK4 are routinely more active than D2- or D1-containing holoenzymes in phosphorylating DMP1”.

B5: the “Luciferase Activity (DMP1 transactivation of a DMP1-responsive reporter; DMP1 alone 8.4, no DMP1 1.0)” value in data set [6] was 1.6 relative to empty expression vector = 1.0.

On to B6, for which, in data set [6], the “Luciferase Activity (DMP1 transactivation of a DMP1-responsive reporter; DMP1 alone 8.4, no DMP1 1.0)” value was 1.6 relative to empty expression vector = 1.0.
